In paper PMC2945410 (Journal of molecular biology, 2010):

Molecular target: the molecule itself
Assay: SEC

B1: EAL domain of TBD1265 from Thiobacillus denitrificans (aa 487-758) (domain or fragment)
chain: not shown
modifications: Se-Met substituted (for the crystals)
- stoichiometry N: 2
